Values of other authors, collected in publication PMC3218432.

Target: Asp85 (UniProt position 98, WARYADWLFTT)

Bacteriorhodopsin (Halobacterium salinarum (not stated in the article; described as archaeal))
pKa: 2.3
